Assay [1] addresses human Y2 receptor (human) (UniProt P49146). Kind of assay: cell-based or functional assay.
Assay [2] shares this target. Kind of assay: RBA: displacement of [125I]-PYY from hY2R/CHO membranes. Background: Loss of bound radioactivity is the signal in a displacement assay; it reports binding, not function.

Non-standard residues stand in square brackets, D forms with d. *: point of attachment. X3 = ((1S)-1-Carboxy-2-hydroxyethyl)carbamoyl, O=C(O)[C@H](CO)NC(=O)*; X2 = (tetrahydro-2H-pyran-4-ylmethyl)carbamoyl, O=C(NCC1CCOCC1)*; X8 = (2-Hydroxy-1-(hydroxymethyl)ethyl)carbamoyl, O=C(NC(CO)CO)*; X7 = (tetrahydro-2H-pyran-4-yl)carbamoyl, O=C(NC1CCOCC1)*; (3-carboxypropyl)carbamoyl = O=C(O)CCCNC(=O)*; (2-carboxyethyl)carbamoyl = O=C(O)CCNC(=O)*; Tetrahydropyran4carbonyl = O=C(C1CCOCC1)*; tBuAla = CC(C)(C)C[C@H](N)C(=O)O; 4Pal = N[C@@H](Cc1ccncc1)C(=O)O; dHyp = O=C(O)[C@H]1C[C@H](O)CN1; Cha = N[C@@H](CC1CCCCC1)C(=O)O; Iva = CC[C@](C)(N)C(=O)O; Nva = CCC[C@H](N)C(=O)O; Aib = CC(C)(N)C(=O)O

Sequence of human Y2 receptor (human) (P49146 whole entry): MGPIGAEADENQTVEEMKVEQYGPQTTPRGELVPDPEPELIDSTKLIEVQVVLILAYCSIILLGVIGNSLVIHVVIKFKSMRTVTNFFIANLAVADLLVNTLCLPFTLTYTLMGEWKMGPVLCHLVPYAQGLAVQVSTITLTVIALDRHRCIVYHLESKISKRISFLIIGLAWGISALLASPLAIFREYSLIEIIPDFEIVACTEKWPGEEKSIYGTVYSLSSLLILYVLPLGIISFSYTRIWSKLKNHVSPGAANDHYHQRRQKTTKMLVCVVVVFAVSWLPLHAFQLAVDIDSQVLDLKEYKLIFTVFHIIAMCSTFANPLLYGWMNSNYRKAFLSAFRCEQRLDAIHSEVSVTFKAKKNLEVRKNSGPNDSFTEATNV

B1: (Tetrahydro-2H-pyran-4-yl)carbonyl-[D-Pro24, Iva25, Pya(4)26, Cha27,36, Aib28,31, Lys30]-PYY(23-36) (peptide)
peptide: Tetrahydropyran4carbonyl-S[dP][Iva][4Pal][Cha][Aib]NK[Aib]TRQR[Cha]-NH2
SMILES: CC[C@](C)(NC(=O)[C@H]1CCCN1C(=O)[C@H](CO)NC(=O)C1CCOCC1)C(=O)N[C@@H](Cc1ccncc1)C(=O)N[C@@H](CC1CCCCC1)C(=O)NC(C)(C)C(=O)N[C@@H](CC(N)=O)C(=O)N[C@@H](CCCCN)C(=O)NC(C)(C)C(=O)N[C@H](C(=O)N[C@@H](CCCNC(=N)N)C(=O)N[C@@H](CCC(N)=O)C(=O)N[C@@H](CCCNC(=N)N)C(=O)N[C@@H](CC1CCCCC1)C(N)=O)[C@@H](C)O
Consider B1, for which the GBA EC50 Ratio ([35S]GTPγS binding) (EC50 compound/EC50 PYY(3-36)) in assay [1] came to 1.9. Also, the IC50 Ratio (IC50 compound/IC50 PYY(3-36)) in assay [2] came to 3.3.

B2: [(1S)-1-Carboxy-2-hydroxyethyl]carbamoyl-[D-Pro24, Iva25, Pya(4)26, Cha27,36, Aib28,31, Lys30]-PYY(23-36) (peptide)
peptide: X3-S[dP][Iva][4Pal][Cha][Aib]NK[Aib]TRQR[Cha]-NH2
SMILES: CC[C@](C)(NC(=O)[C@H]1CCCN1C(=O)[C@H](CO)NC(=O)N[C@@H](CO)C(=O)O)C(=O)N[C@@H](Cc1ccncc1)C(=O)N[C@@H](CC1CCCCC1)C(=O)NC(C)(C)C(=O)N[C@@H](CC(N)=O)C(=O)N[C@@H](CCCCN)C(=O)NC(C)(C)C(=O)N[C@H](C(=O)N[C@@H](CCCNC(=N)N)C(=O)N[C@@H](CCC(N)=O)C(=O)N[C@@H](CCCNC(=N)N)C(=O)N[C@@H](CC1CCCCC1)C(N)=O)[C@@H](C)O
With B2, the GBA EC50 Ratio ([35S]GTPγS binding) (EC50 compound/EC50 PYY(3-36)) in assay [1] was found to be 3. In addition, in assay [2], the IC50 Ratio (IC50 compound/IC50 PYY(3-36)) stood at 3.5.

B3: (Tetrahydro-2H-pyran-4-ylmethyl)carbamoyl-[D-Pro24, Iva25, Pya(4)26, Cha27,36, Aib28,31, Lys30]-PYY(23-36) (peptide)
peptide: X2-S[dP][Iva][4Pal][Cha][Aib]NK[Aib]TRQR[Cha]-NH2
SMILES: CC[C@](C)(NC(=O)[C@H]1CCCN1C(=O)[C@H](CO)NC(=O)NCC1CCOCC1)C(=O)N[C@@H](Cc1ccncc1)C(=O)N[C@@H](CC1CCCCC1)C(=O)NC(C)(C)C(=O)N[C@@H](CC(N)=O)C(=O)N[C@@H](CCCCN)C(=O)NC(C)(C)C(=O)N[C@H](C(=O)N[C@@H](CCCNC(=N)N)C(=O)N[C@@H](CCC(N)=O)C(=O)N[C@@H](CCCNC(=N)N)C(=O)N[C@@H](CC1CCCCC1)C(N)=O)[C@@H](C)O
With B3, the GBA EC50 Ratio ([35S]GTPγS binding) (EC50 compound/EC50 PYY(3-36)) in assay [1] came out at 1.9. Moreover, in assay [2], the IC50 Ratio (IC50 compound/IC50 PYY(3-36)) turned out to be 1.7.
Consider Carbamoylmethylcarbamoyl-S[dP][Iva][4Pal][Cha][Aib]NK[Aib]TRQR[Cha]-NH2 [Carbamoylmethylcarbamoyl-[D-Pro24, Iva25, Pya(4)26, Cha27,36, Aib28,31, Lys30]-PYY(23-36)], for which, in assay [1], the GBA EC50 Ratio ([35S]GTPγS binding) (EC50 compound/EC50 PYY(3-36)) came to 1.7. Also, the IC50 Ratio (IC50 compound/IC50 PYY(3-36)) in assay [2] was 1.7.

B4: [2-Hydroxy-1-(hydroxymethyl)ethyl]carbamoyl-[D-Pro24, Iva25, Pya(4)26, Cha27,36, Aib28,31, Lys30]-PYY(23-36) (peptide)
peptide: X8-S[dP][Iva][4Pal][Cha][Aib]NK[Aib]TRQR[Cha]-NH2
SMILES: CC[C@](C)(NC(=O)[C@H]1CCCN1C(=O)[C@H](CO)NC(=O)NC(CO)CO)C(=O)N[C@@H](Cc1ccncc1)C(=O)N[C@@H](CC1CCCCC1)C(=O)NC(C)(C)C(=O)N[C@@H](CC(N)=O)C(=O)N[C@@H](CCCCN)C(=O)NC(C)(C)C(=O)N[C@H](C(=O)N[C@@H](CCCNC(=N)N)C(=O)N[C@@H](CCC(N)=O)C(=O)N[C@@H](CCCNC(=N)N)C(=O)N[C@@H](CC1CCCCC1)C(N)=O)[C@@H](C)O
With B4, in assay [1], the GBA EC50 Ratio ([35S]GTPγS binding) (EC50 compound/EC50 PYY(3-36)) was found to be 2. The IC50 Ratio (IC50 compound/IC50 PYY(3-36)) in assay [2] came to 1.76.

B5: Ac-[Glu23, D-Hyp24, Iva25, Pya(4)26, Cha27,36, Leu(Me)28, Lys30, Aib31]-PYY(23-36) (peptide)
peptide: Ac-E[dHyp][Iva][4Pal][Cha][tBuAla]NK[Aib]TRQR[Cha]-NH2
SMILES: CC[C@](C)(NC(=O)[C@H]1C[C@H](O)CN1C(=O)[C@H](CCC(=O)O)NC(C)=O)C(=O)N[C@@H](Cc1ccncc1)C(=O)N[C@@H](CC1CCCCC1)C(=O)N[C@@H](CC(C)(C)C)C(=O)N[C@@H](CC(N)=O)C(=O)N[C@@H](CCCCN)C(=O)NC(C)(C)C(=O)N[C@H](C(=O)N[C@@H](CCCNC(=N)N)C(=O)N[C@@H](CCC(N)=O)C(=O)N[C@@H](CCCNC(=N)N)C(=O)N[C@@H](CC1CCCCC1)C(N)=O)[C@@H](C)O
Turning to B5, the GBA EC50 Ratio ([35S]GTPγS binding) (EC50 compound/EC50 PYY(3-36)) in assay [1] amounted to 1.9. For the same molecule, the IC50 Ratio (IC50 compound/IC50 PYY(3-36)) in assay [2] came to 1.2.

B6: Ac-[D-Pro24, Iva25, Pya(4)26, Cha27,36, Nva28, Aib31, Lys30]-PYY(23-36) (peptide)
peptide: Ac-S[dP][Iva][4Pal][Cha][Nva]NK[Aib]TRQR[Cha]-NH2
SMILES: CCC[C@H](NC(=O)[C@H](CC1CCCCC1)NC(=O)[C@H](Cc1ccncc1)NC(=O)[C@](C)(CC)NC(=O)[C@H]1CCCN1C(=O)[C@H](CO)NC(C)=O)C(=O)N[C@@H](CC(N)=O)C(=O)N[C@@H](CCCCN)C(=O)NC(C)(C)C(=O)N[C@H](C(=O)N[C@@H](CCCNC(=N)N)C(=O)N[C@@H](CCC(N)=O)C(=O)N[C@@H](CCCNC(=N)N)C(=O)N[C@@H](CC1CCCCC1)C(N)=O)[C@@H](C)O
For the molecule B6, in assay [1], the GBA EC50 Ratio ([35S]GTPγS binding) (EC50 compound/EC50 PYY(3-36)) was 1.3. Moreover, the IC50 Ratio (IC50 compound/IC50 PYY(3-36)) in assay [2] worked out at 1.6.

B7: (2-Carboxyethyl)carbamoyl-[D-Pro24, Iva25, Pya(4)26, Cha27,36, Aib28,31, Lys30]-PYY(23-36) (peptide)
peptide: {(2-carboxyethyl)carbamoyl}-S[dP][Iva][4Pal][Cha][Aib]NK[Aib]TRQR[Cha]-NH2
SMILES: CC[C@](C)(NC(=O)[C@H]1CCCN1C(=O)[C@H](CO)NC(=O)NCCC(=O)O)C(=O)N[C@@H](Cc1ccncc1)C(=O)N[C@@H](CC1CCCCC1)C(=O)NC(C)(C)C(=O)N[C@@H](CC(N)=O)C(=O)N[C@@H](CCCCN)C(=O)NC(C)(C)C(=O)N[C@H](C(=O)N[C@@H](CCCNC(=N)N)C(=O)N[C@@H](CCC(N)=O)C(=O)N[C@@H](CCCNC(=N)N)C(=O)N[C@@H](CC1CCCCC1)C(N)=O)[C@@H](C)O
Regarding B7, in assay [1], the GBA EC50 Ratio ([35S]GTPγS binding) (EC50 compound/EC50 PYY(3-36)) is 2.4. Also, the IC50 Ratio (IC50 compound/IC50 PYY(3-36)) in assay [2] came to 3.2.

B8: (3-Carboxypropyl)carbamoyl-[D-Pro24, Iva25, Pya(4)26, Cha27,36, Aib28,31, Lys30]-PYY(23-36) (peptide)
peptide: {(3-carboxypropyl)carbamoyl}-S[dP][Iva][4Pal][Cha][Aib]NK[Aib]TRQR[Cha]-NH2
SMILES: CC[C@](C)(NC(=O)[C@H]1CCCN1C(=O)[C@H](CO)NC(=O)NCCCC(=O)O)C(=O)N[C@@H](Cc1ccncc1)C(=O)N[C@@H](CC1CCCCC1)C(=O)NC(C)(C)C(=O)N[C@@H](CC(N)=O)C(=O)N[C@@H](CCCCN)C(=O)NC(C)(C)C(=O)N[C@H](C(=O)N[C@@H](CCCNC(=N)N)C(=O)N[C@@H](CCC(N)=O)C(=O)N[C@@H](CCCNC(=N)N)C(=O)N[C@@H](CC1CCCCC1)C(N)=O)[C@@H](C)O
With B8, in assay [1], the GBA EC50 Ratio ([35S]GTPγS binding) (EC50 compound/EC50 PYY(3-36)) stood at 1.9. Besides, the IC50 Ratio (IC50 compound/IC50 PYY(3-36)) in assay [2] stood at 1.6.

B9: (Tetrahydro-2H-pyran-4-yl)carbamoyl-[D-Pro24, Iva25, Pya(4)26, Cha27,36, Aib28,31, Lys30]-PYY(23-36) (peptide)
peptide: X7-S[dP][Iva][4Pal][Cha][Aib]NK[Aib]TRQR[Cha]-NH2
SMILES: CC[C@](C)(NC(=O)[C@H]1CCCN1C(=O)[C@H](CO)NC(=O)NC1CCOCC1)C(=O)N[C@@H](Cc1ccncc1)C(=O)N[C@@H](CC1CCCCC1)C(=O)NC(C)(C)C(=O)N[C@@H](CC(N)=O)C(=O)N[C@@H](CCCCN)C(=O)NC(C)(C)C(=O)N[C@H](C(=O)N[C@@H](CCCNC(=N)N)C(=O)N[C@@H](CCC(N)=O)C(=O)N[C@@H](CCCNC(=N)N)C(=O)N[C@@H](CC1CCCCC1)C(N)=O)[C@@H](C)O
Consider B9, for which the GBA EC50 Ratio ([35S]GTPγS binding) (EC50 compound/EC50 PYY(3-36)) in assay [1] was determined as 1.8. In addition, in assay [2], the IC50 Ratio (IC50 compound/IC50 PYY(3-36)) is 1.7.

Values taken from US20120172293A1 (Takeda / Millennium, published 2012).
